Source: the DeepSol protein solubility set

Test: soluble on expression in E. coli; label from the status in PepcDB or PDB records

| Sequence | soluble on expression in E. coli |
| --- | --- |
| MVQLNGKVAIVTGGAKGIGKAITVALAQEGAKVVINYNSSKEAAENLVNELGKEGHDVYAVQADVSKVEDANRLVEEAVNHFGKVDILVNNAGITRDRTFKKLNREDWERVIDVNLSSVFNTTSAVLPYITEAEEGRIISISSIIGQAGGFGQTNYSAAKAGMLGFTKSLALELAKTNVTVNAICPGFIDTEMVAEVPEEVRQKIVAKIPKKRFGQADEIAKGVVYLCRDGAYITGQQLNINGGLYM | not soluble |
| GVTGADGTTTFTLKQDQTTGLKTELTAALDSSSSTKSTLPVVFTVLTSPDSPKAKFWGHMAETATGDDGLIYRRPLLRDENSATTSIGTLVEEGEAWSTFPSGQANDTSINGCGAEYVPTDNELRAIYAHQGSSALHDAIGWPVSRFYISNTVADTFTQTFTYDVVSLKTGDETQMPSSGGALLSCR | not soluble |
| MKPLSSQLNMKINDFYLPLLPVIGTGRLYITSKGHACHAYFREVSGHGIRFTLTYSGYEGRFWISEEQFIQWCQELFPYSESRLIPEDTIKLMILWVMQTALPEGDVSVDDVQFTMLNKDIYPVIENNNGENRLNVIILETTVQSLQYLINDNWQLVPHSNALFFDGYIVPGWTDYPVTELRVGDSLRLYHVDDSQERRCWIVINTPLATVNLSDNNLSVTDVLAADLLSALSNETVMNRIYCAIGTVHIDIHMLRNVKKDDIINSDGYHLFGGCQLIRNNTTIAYGSIVKINEDFYFTVSIVCD | soluble |
| MPSIYKSVTINTSKEMMCFSDFPVPDHFPNYMHNSKLMDYFGMYATHFGLLNYIRFKTEVQSVRKHPDFSINGQWDVVVETEEKQETLVFDGVLVCSGHHTDPYLPLQSFPGIEKFEGCYFHSREYKSPEDFSGKRIIVIGIGNSGVDIAVELSRVAKQI | not soluble |
| MSEVEKTYCGFIAIVGRPNVGKSTLLNELLGQKISITSRKPQTTRHRIMGIHTEGPYQAIYVDTPGLHIEEKRAINRLMNRAASSSLGDVELVIFVVEGTHWTADDEMVVNKLRSLQCPVLLAINKVDNVTDKTKLLPHMQFLSQQMNFLDVVPISAEKGMNVDTIASIVRKHMPEAEHHFPEDYITDRSQRFMASEIIREKLMRFLGEELPYSVTVEIEQFVPNERGGYNIHGLILVEREGQKKMVIGNKGSKIKVIGTEARQDMERMFEAKVHLELWVKVKSGWADDERALRSLGYTDDLK | not soluble |
| MGSDKIHHHHHHMRISLGPLVYCWQKQQVMAFYQQVAASQIPLVYLGEAVCSRRRELKWGDYFELARMLKQAGKEVVISTLALIEASSEYTELKRQVDNGEFMIEANDMAAVYLAKEHKLPFVCGASINNYNRASLDILHGFGMQRFVMPVELSKAWLQHVIQNKPAFEVEVFGHGYLPLAHSARCFTARHKQLTKDSCETICRQYSKGLLAQTQEMQPLLRLNGIQTQSAACLDLSSEIAAMNTMGVDVFRVSPSGTESIVRAESLIEALNMPEMALNAPIKGEQCDGYWFGEAGLTIHHAT | not soluble |
| MKHEIKHDPAFRALTPKWHHGYRFQYEPAQKAHVVLYPEGMIKLNDSASLIGGLIDGERTIAAIIAELQREFPNIPELGMDVDDFMKVAKEKYWIDLV | not soluble |
| MSLAQTLGYIYRKRMIDSIEEFSRQIETTYQINKFWDNFEQIREVQNTKIDKVKEKQQKLMERLSSLYDKVEGQKEMGSMNNSNISAAESEWFAEIKRSVIEFNSYVRKASTNHQELEFIKEQQAQIANQKPDISSENGKEWNDLQQLLREGHHHHHH | soluble |
| MGSDKIHHHHHHVYRKIKAQDLRPGMYVVDVGLSWLENPYLYMTEGVLADEEAVGRVLSEGYEEAVIDLRRCLEGSVPDDLAELEPLTDAEHVSRAVSATADSPVSAVAQRVPVAQEMLAAKAIYSESITFVRGFMEGAREGRPVDLKAAEPLVEDIIQSVSRNAGALIGFAKLRAYDLYTYTHSLNVSLLAVAFGKYLGLDTVALRQIGLAGLFHDLGKALIPDFILNCPGRLTPEEFSVMKRHPVLGRDVLPGGGRIPDMVLEGMLQHHEKFNGTGYPAGLKGDAISEAGRIIAVVDVYDALTSKRPYKNAMLPNKALSILYSMAGEEFYPGYVEHFIKCIGIYPVGQIVRLNTGQVGVVSATDPAVPLRPEVIVVRDPLGRPAPPRLIRLADVISVSVTETLEAAHAGIDAARVLQDGAAS | not soluble |
| MKFLHTADLHLGKIVSGVSMLAEQEYILAQITKIAEEEQVDALILAGDLYDRAVPPADAVKVLNDILVKWNVELGIPIFAISGNHDSAERLAFGSQWYESSKLYMKGKCTSQFEAISFMDAEVWLVPYHEPAIIREAFADNSIRSFEDAMQAVTKQIRSKWDTSKAQILVGHAFVSGGIPSDSERQLAIGNVDRVSTDCFDGFTYTALGHLHHPHAIRHPSIFYSGSPLKYSFSEANDHKSVRIVELEGKELVSVTERFLTPKHDMRIISGTLAELTENLVENPDDFFQVNLMDEGALIDPMGKLRQFYPNILHLERKKQTLKETQDNFEEIMKKDDLELFGQFFEHVNGTELTETQKQKLADVFEQARKEDAE | not soluble |
| MGSDKIHHHHHHMTFSAKNAAGETTGGVFTVALDRCAVYGRASSGAVCGSLLESAGWRPAAGSRVLVKPNLLRAQPDGLCCTHPQVVRAAVEYALDCGAVVTVGDSPAFGSAERVAQAVGLTDALQGLGVRVVTLDDPVDCRLPSGLRVGVARAALEADALLNVPRVKVHCQMRLTLAVKNLFGCVCGVRKAVAHTRHGDRGNRFEALIVELAERLPPSGVLLDGITAMHRTGPSGGDPYLLGLLGASCSSVAMDTAVGTLLGAAPETIPLWAELRRRKQPAAFVENLHFPVLFPADFSPQGVTPDGFCIPQVLKPVSFRPATLLRSLVRRMWHRYGPSA | not soluble |
| MSLNIPDEGFFTLLTQGMRNRTVETLQRALYHTLRDAILQGTLTARCRLPGSRVMAERLHLSRNTVNAALEQLALEGYLTRSRQGTQVAPLASCRQEAGQMPPVVLPERLQRLPAAMRRDSPTLAFTPGMPAVNYFPLPLWRRLMDNVLREDGSALLGYGEAAGDPLLREAIARHLALSRGIRCDIRQIVITEGALEGVNLCASLLTNPGDSVWLEEPGYLGAWSGFQRAGLRVRGMAVDDEGMCIANGVAEPPRLIFTSPSHQYPCGSIMSAGRRLALVEYARRHGAWIVEDDYDSEFRHSGEPIPAMLGMVPDAPVVYLGTFSKTLFPALRIGFMVMPPALADAAQDAIGALLRGGHRAEQRALASFIEKGHYARHLAAMRRLYRKRQQQLREALAQEITVPCDVLGGGGGMHLTVAMEGVNDRTLAQQARQFQLAPAALSHFYLDPQRARSGLVLGYGNTSASRYLPALRTLNRLIAQHRRAEGHHHHHH | not soluble |
| MGSDKIHHHHHHMHLELRHLRTIRAIHQAGGLARAADVLHMTQSALSHQVKGLEDQAGIELFVRRSKPLKLSAAGIRLLRLAERILPEIDALEDEFRALRSGRTGRLHIAIECHACFEWLFPVLELFRHAWPEIDVDIRAGLAFEALPALMREEVDLVISSDPVTVEGMVFNPLFDYHPTFVAAASNPLAAREFISAEDFRDQMLITYPVSRDRLDVFTEVLTPAKVEPRGTRQVELTAVILMLVASNRGVSVLPDWVLRDVRSHADYVTRPLGPKTVTKRLYAATRTEDATKPFMAHFLRLGRSEPVKLQRA | not soluble |
| MGKATYTVTVTNNSNGVSVDYETETPMTLLVPEVAAEVIKDLVNTVRSYDTENEHDVCGW | soluble |
| MGSDKIHHHHHHMYLGIDVGGTHTDAVVLDAQKRIQAWAKVPTLHHDLLSSVTQALDSVLQSVAAQDIVRLNLSTTLSTNAIVESKTEDVGVLVSSGPGIDPENFRQGGFFFPLSGSIDHRGKVIAAMEQDELAAAVRRCCDSGIRVYAAVGKFSTRNPDHEETMAHEAMQCGDFVSMGHRLSGQLSFPRRVATAYYNSAVWRLYNSFADAVESSARAKGVTAPVHILKADGGTMPLAVSRRMPVESILSGPAASVMGIVALYDIREDAVILDIGGTTTDIALFASGSPVIENDGISVGSYPTLVRALRTLSIGVGGDSRLRIAAGAVRVGPDRSGPCVANGGTHVALMDAMNYLEVAAVGDVEASREAVRQLASLWDMYPEKLAREALDTAVNTICAAVDRLLDEVNAQPVYTIIELLDGVKLNPGRVFVMGGPAAAFAPLLRNVMNRRIDVPRDHAVANAVGAALTRTTAELELFADTEKGLVFVPTLGLRREAPLGYNLDDAVADAGRYLTESLAGMGIHIRPEDVDVLEAGSFNMVDMYGGKGRNIRVKCQVRPGISL | not soluble |
| MSLAFGNYPFLTVSEITYTNPINSNIVSEDFDVEIGEATNGTVTSRVGIRVKDITRHIGIFGSTGSGKTNTAILLASQLNAKGVKVIILDWHGEYDQLLKNGFRIYDEKTIVKINPLHLIDLDVEDTVDIIGDVLQLTDPQRFLLYTILLKLKSYRKFSINQLLEVINSIEDTSYWMRDVKYALLRKIFILFTPTASKLFSTVDETSLNDFPDYLTSSTIINLGFISNLKLRKLYSLFLIKLIVESYIREGHHHHHH | soluble |
| MVNYKEKLDEAIHLTQQKGFEQTRAEWLMLDVFQWTRTDFVVHMHDDMPKAMIMKFDLALQRMLLGEPIQYIVGFASFYGRTFDVNSNCLIPRPETEEVMLHFLQQLEDDATIVDIGTGSGVLAITLKCEKPDLNVIATDISLEAMNMARNNAEKHQSQIQFLTGDALKPLINEGIKLNGLISNPPYIDEKDMVTMSPTVTRFEPHQALFADNHGYAIYESIIEDLPHVMEKGSPVVFEIGYNQGEALKSIILNKFPDKKIDIIKDINGHDRIVSFKW | not soluble |
| MSADGAEADGSTQVTVEEPVQQPSVVDRVASMPLISSTCDMVSAAYASTKESYPHVKTVCDAAEKGVRTLTAAAVSGAQPILSKLEPQIASASEYAHRGLDKLEENLPILQQPTEKVLADTKELVSSKVSGAQEMVSSAKDTVATQLSEAVDATRGAVQSGVDKTKSVVTGGVQSVMGSRLGQMVLSGVDTVLGKSEEWADNHLPLTDAELARIATSLDGFDVASVQQQRQEQSYFVRLGSLSERLRQHAYEHSLGKLRATKQRAQEALLQLSQVLSLMETVKQGVDQKLVEGQEKLHQMWLSWNQKQLQGPEKEPPKPEQVESRALTMFRDIAQQLQATCTSLGSSIQGLPTNVKDQVQQARRQVEDLQATFSSIHSFQDLSSSILAQSRERVASAREALDHMVEYVAQNTPVTWLVGPFAPGITEKAPEEKK | soluble |
| MGSSHHHHHHGKTIFVIVPTNEEQVAFLEALAKQDELNFDWQNPPTEPGQPVVILIPSDMVEWFLEMLKAKGIPFTVYVEEGGSENLYFQGGGGGGRRGFTETVSPVAGFHIFTLFLLRELIEPWSQGQVRAQAARAREAQRRSFTTDIAMQYREKLD | soluble |
| CLEDILSATKMVINLCLPQFRPRIHCNKISADGYEVENLISEDLTKRSHGFRTEYFIKPPVYVTVSFPFNVEICRINIDLTAGGGQNVTGLEMYTSASSSRVSWNTPQCRTLGPAEPSVPDKEAFTLVGKVLLKNQSQVVFSHRGFKARPPFGAMEATLPSPAVVAQELWNKGALSLSHVAHLRICITHVTGGGIPCIKRLEVWGQPAKTCSQEVIDSILLVTSENLPQDVALQAPALPMESDCDPGDQPESQQAPSSLQKLAEIIQDVPEEFLDPITLEIMPCPMLLPSGKVIDQSTLEKCNRSEATWGRVPSDPFTGVAFTPHSQPLPHPSLKARIDHFLLQHSIPGCHLLGRAQTALAVIPSSIVLPSQKRKIEQAEHVPDSNFGVNASCFSATSPLVLPTTSEHTAKKMKATNEPSLTHMDCSTGPLSHEQKLSQSLEIALASTLGSMPSFTARLTRGQLQHLGTRGSNTSWRPGTGSEQPGSILGPECASCKRVFSPYFKKEPVYQLPCGHLLCRPCLGEKQRSLPMTCTACQRPVASQDVLRVHF | soluble |
